# Assay results published in US20250313626A1 (HARBOUR BIOMED SHANGHAI, published 2025).
# T1: human CD200R1 isoform a on CHOK1 cells (CHOK1/hCD200R1a) (human, UniProt Q8TD46 25-348)
# T1 construct: also called CHOK1/CD200R1a
# T1 sequence: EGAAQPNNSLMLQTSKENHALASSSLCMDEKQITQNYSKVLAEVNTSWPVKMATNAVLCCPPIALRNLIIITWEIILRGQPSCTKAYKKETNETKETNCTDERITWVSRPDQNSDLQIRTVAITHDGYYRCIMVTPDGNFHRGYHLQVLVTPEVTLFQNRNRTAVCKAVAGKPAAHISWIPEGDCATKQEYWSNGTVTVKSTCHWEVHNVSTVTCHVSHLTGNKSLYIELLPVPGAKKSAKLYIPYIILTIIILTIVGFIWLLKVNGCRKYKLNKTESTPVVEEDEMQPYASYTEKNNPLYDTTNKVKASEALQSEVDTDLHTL
# T2: Cyno CD200R1a-His (Cynomolgus macaques, UniProt Q8TD46 25-265 (human entry))
# T2 construct: Soluble protein used in BLI; also called Cynomolgus macaques CD200R1a recombinant protein; not shown: His tag
# T2 chain: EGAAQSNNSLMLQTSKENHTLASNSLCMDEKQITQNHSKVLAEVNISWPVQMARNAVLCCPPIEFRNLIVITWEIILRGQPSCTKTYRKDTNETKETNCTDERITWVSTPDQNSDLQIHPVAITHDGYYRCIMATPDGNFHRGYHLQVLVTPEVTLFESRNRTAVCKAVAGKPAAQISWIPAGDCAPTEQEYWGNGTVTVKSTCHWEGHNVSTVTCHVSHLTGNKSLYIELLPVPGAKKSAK
# T3: human CD200R1a protein (soluble recombinant) (human, UniProt Q8TD46 29-265)
# T3 construct: Soluble protein used in BLI; also called human CD200R1 isoform a; not shown: His tag implied by capture on anti-Penta-HIS biosensors
# T3 sequence: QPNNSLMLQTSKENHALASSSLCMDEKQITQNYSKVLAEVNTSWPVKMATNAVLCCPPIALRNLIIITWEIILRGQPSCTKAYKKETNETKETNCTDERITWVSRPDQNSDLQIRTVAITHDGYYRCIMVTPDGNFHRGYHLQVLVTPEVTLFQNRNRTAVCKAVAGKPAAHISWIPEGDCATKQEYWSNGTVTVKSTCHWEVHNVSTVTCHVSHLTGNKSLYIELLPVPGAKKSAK
# T4: Mouse CD200R1-His (mouse, UniProt Q9ES57 26-238, limits assumed)
# T4 sequence (looked up): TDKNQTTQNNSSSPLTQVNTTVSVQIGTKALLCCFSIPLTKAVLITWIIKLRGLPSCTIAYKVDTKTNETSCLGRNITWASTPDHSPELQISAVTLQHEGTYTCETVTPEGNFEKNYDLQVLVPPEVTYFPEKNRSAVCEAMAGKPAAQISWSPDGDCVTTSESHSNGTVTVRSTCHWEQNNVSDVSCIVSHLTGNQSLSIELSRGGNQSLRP
# Key:
# [1] = biological target: T1, human CD200R1 isoform a on CHOK1 cells …; assay: flow cytometry, CHOK1/hCD200R1a cells (FITC-Mean); table beside the curves
# Description: This example is intended to investigate the in vitro binding activity of human anti-CD200R1 monoclonal antibodies to human/Cynomolgus macaques CD200R1a expressed on the surface of cells. The anti-CD200R1 antibodies were produced as described in Example 3.4 and the binding experiments at the cell level were performed using CHOK1/hCD200R1a and CHOK1-cynoCD200R1a.
# Briefly, CHOK1/hCD200R1a cells and CHOK1-cynoCD200R1a cells were digested, and collected, and then were resuspended in PBS containing 2% BSA, respectively. The cell density was adjusted to 1×10⁶ cells/mL. The cells were seeded in a 96-well V-bottom plate (Corning, #3894) at 100 μL/well, followed by the addition of test antibodies and reference antibodies in a series diluted concentration, each at 100 μL/well. The cells were incubated away from light at 4° C. for 1 h. Thereafter, the cells in each well were rinsed twice with 100 μL of pre-cooled PBS containing 2% BSA, and centrifuged at 500 g at 4° C. for 5 min, and then the supernatant was discarded. 100 μL of fluorescent secondary antibody (Alexa Fluor 488-conjugated AffiniPure Goat Anti-Human IgG, Fcγ Fragment Specific, Jackson, #109-545-098, diluted in a 1:1000 ratio) was added in each well, and the plate was incubated away from light at 4° C. for 1 h. The cells in each well were rinsed twice with 100 μL of pre-cooled PBS containing 2% BSA, and centrifuged at 500 g at 4° C. for 5 min, and then the supernatant was discarded. Finally, the cells in each well were resuspended in 200 μL of pre-cooled PBS containing 2% BSA, and the fluorescence signal values were read using a BD CantoII flow cytometer.
# [2] = biological target: T2, Cyno CD200R1a-His; assay: BLI (Octet), antibody captured on anti-human Fc sensor, soluble CD200R1a as analyte, 1:1 fit
# Description: (§1) To determine the binding affinities of the anti-CD200R1 antibodies to CD200R1a proteins of various species (mouse, human, Cynomolgus macaques), bio-layer interferometry (BLI) assays were carried out using an Octet® RED96e instrument. Antibodies were produced as described in Example 3.4 and diluted to 5 μg/mL using freshly prepared 1× kinetic buffer (10× kinetic buffer (Catalog #18-1105, ForteBio) was diluted with PBS(Catalog #E607016-0500, BBI Life Sciences)) and were captured on the surface of anti-human Fc (AHC) Octet biosensors (Catalog #18-5060, ForteBio) to reach capture levels between 0.9-1.2 nm. The biosensors having the captured anti-CD200R1 antibodies were then dipped in wells containing 2-fold serial dilutions of CD200R1a proteins to detect association signals, followed by dissociation steps in wells containing 1× kinetic buffer. The sensorgrams were recorded and the reference signals were subtracted before curve fitting using ForteBio Data Analysis 11.0 software. Association rates (kₒₙ) and dissociation rates (koff) were calculated using a simple one-to-one Langmuir binding model. The equilibrium dissociation constant (KD) was calculated as the ratio of koff/kₒₙ.
# [3] = biological target: T3, human CD200R1a protein (soluble …); assay: as above
# Description: as §1
# [4] = biological target: T4, Mouse CD200R1-His; assay: BLI (Octet), antibody captured on anti-human Fc sensor
# Description: as §1
binder,measurement,setting,value
"PR006480 (antibody, human IgG1, kappa, L234A L235A, also called PR6480) heavy: not shown light: DIQMTQSPPSLSASVGDRVTITCRASQSISSYLNWFQQKAGKAPKLLISATSNLQSGVPSRFSGSGSGTDFTLTISSLQPEDLATYYCQQSYSSPYTFGQGTKVEIKRTVAAPSVFIFPPSDEQLKSGTASVVCLLNNFYPREAKVQWKVDNALQSGNSQESVTEQDSKDSTYSLSSTLTLSKADYEKHKVYACEVTHQGLSSPVTKSFNRGEC",MFI(Max),[1],8890
same,Kd,[2],104 nM
same,koff,[2],0.00713 s⁻¹
same,kon,[2],68500 M⁻¹ s⁻¹
same,Kd,[3],14.3 nM
same,koff,[3],0.000476 s⁻¹
same,kon,[3],33300 M⁻¹ s⁻¹
same,binding result,[4],no binding
"PR007221 (antibody, human IgG1, kappa, PTM variant of PR006895 (human IgG1)) heavy: not shown light: DIQLTQSPPSLSASVGDRVTITCRASQSISSYLNWFQQKAGKAPKLLISATSNLQSGVPSRFSGSGSGTDFTLTISSLQPEDLATYYCQQTLSSPYTFGQGTKVEIKRTVAAPSVFIFPPSDEQLKSGTASVVCLLNNFYPREAKVQWKVDNALQSGNSQESVTEQDSKDSTYSLSSTLTLSKADYEKHKVYACEVTHQGLSSPVTKSFNRGEC",MFI(Max),[1],11100
same,Kd,[2],12.5 nM
same,koff,[2],0.000776 s⁻¹
same,kon,[2],62100 M⁻¹ s⁻¹
same,Kd,[3],4.34 nM
same,koff,[3],0.000211 s⁻¹
same,kon,[3],48600 M⁻¹ s⁻¹
same,binding result,[4],no binding
"PR007223 (antibody, human IgG1, kappa, PTM variant of PR006895 (human IgG1)) heavy: not shown light: DIQLTQSPPSLSASVGDRVTITCRASQSISSYLNWFQQKAGKAPKLLISATSNLQSGVPSRFSGSGSGTDFTLTISSLQPEDLATYYCQQTYSSPYTFGQGTKVEIKRTVAAPSVFIFPPSDEQLKSGTASVVCLLNNFYPREAKVQWKVDNALQSGNSQESVTEQDSKDSTYSLSSTLTLSKADYEKHKVYACEVTHQGLSSPVTKSFNRGEC",MFI(Max),[1],9890
same,Kd,[2],16.3 nM
same,koff,[2],0.0014 s⁻¹
same,kon,[2],86000 M⁻¹ s⁻¹
same,Kd,[3],2.07 nM
same,koff,[3],0.000133 s⁻¹
same,kon,[3],64200 M⁻¹ s⁻¹
same,binding result,[4],no binding
"PR002906 (antibody, V domains shown, also called recombinant IgG1 antibody of huDX182) VH: QVQLQESGPGLVKPSETLSLTCTVSGYTITSGYDWSWIRQPPGKGLEWIGYINYGGSTNYKPSLGSRVTISVDTSKNQFSLKLSSVTAADTAVYYCARYNEYKSYIYDWYFDFWGQGTLVTVSS VL: DIQMTQSPSSLSASVGDRVTITCKASKNIRSYLAWYQQKPGKAPKLLIYSGSTLHSGVPSRFSGSGSGTDFTLTISSLQPEDFATYYCQQHHEYPLTFGQGTKVEIKR",MFI(Max),[1],11100
same,Kd,[3],39.3 nM
same,koff,[3],0.00341 s⁻¹
same,kon,[3],86700 M⁻¹ s⁻¹
"PR005509 (antibody, human IgG1, kappa, L234A L235A, V domains shown) VH: QVQLVESGGGVVQPGRSLRLSCAASGFTFSSYGFHWVRQAPGKGLEWLGLIWSDGSNKYYADSVKGRFTISRDNSKNTLYLQMNSLRAEDTAVYYCARDRIVGAGFDYWGQGTLVTVSS VL: not shown",Kd,[2],146 nM
same,koff,[2],0.0275 s⁻¹
same,kon,[2],189000 M⁻¹ s⁻¹
same,Kd,[3],7.74 nM
same,koff,[3],0.000511 s⁻¹
same,kon,[3],66100 M⁻¹ s⁻¹
same,binding result,[4],no binding
"PR005474 (antibody, human IgG1, kappa, L234A L235A, V domains shown) VH: QVQLVESGGGVVQPGRSLRLSCAASAFTFSSYGMHWVRQAPGKGLEWVALIWNDGSNKFYADSVKGRFTISRDNSKNTLFLQMNSLRAEDTAVYYCARDRILGAGFDYWGQGTLVTVSS VL: not shown",Kd,[2],147 nM
same,koff,[2],0.0287 s⁻¹
same,kon,[2],196000 M⁻¹ s⁻¹
same,Kd,[3],16.6 nM
same,koff,[3],0.00101 s⁻¹
same,kon,[3],60700 M⁻¹ s⁻¹
same,binding result,[4],no binding
"PR007973 (antibody, human IgG1, kappa, V domains shown, PTM variant of PR006839 (human IgG1)) VH: QVQLVESGGGVVQPGRSLRLSCAASGFTFSSYGFHWVRQAPGKGLEWLGIIWSDASNKYYADSVKGRFTISRDNSKNTLYLQMNSLRAEDTAVYYCARDRIVGEGFDYWGQGTLVTVSS VL: not shown",Kd,[2],10.2 nM
same,koff,[2],0.000151 s⁻¹
same,kon,[2],14900 M⁻¹ s⁻¹
same,Kd,[3],1.06 nM
same,koff,[3],5.97e-05 s⁻¹
same,kon,[3],56200 M⁻¹ s⁻¹
same,binding result,[4],no binding
